Test results: patent US20150166606A1 (RA PHARMACEUTICALS, published 2015)
Bridge positions count the residues as written; N and C are the ends. Square brackets hold non-standard residues; d marks the D form. mXylyl = xylyl linker from dibromoxylene joining the two cysteines; Trp(5-Cl) = N[C@@H](Cc1c[nH]c2ccc(Cl)cc12)C(=O)O; des‑NH2 = missing amino-terminal amine group; Phe(3-Cl) = N[C@@H](Cc1cccc(Cl)c1)C(=O)O; Phe(4-Cl) = N[C@@H](Cc1ccc(Cl)cc1)C(=O)O; NMeI = CC[C@H](C)[C@H](NC)C(=O)O; BODIPY‑TMR = fluorescent label; dPhg = N[C@@H](C(=O)O)c1ccccc1; Chg = N[C@H](C(=O)O)C1CCCCC1; Phg = N[C@H](C(=O)O)c1ccccc1; Tle = CC(C)(C)[C@H](N)C(=O)O; αMeP = C[C@@]1(C(=O)O)CCCN1; 2‑APY = not defined here; Aze = O=C(O)[C@@H]1CCN1; Mpa = O=C(O)CCS

Each binder was assayed against Activated human plasma kallikrein (Enzyme Research Laboratories, HPKa 1303) (human, UniProt P03952 20-638) (assay: cell-based or functional assay).
Chain of Activated human plasma kallikrein (Enzyme Research Laboratories, HPKa 1303) (P03952 20-638 limits assumed): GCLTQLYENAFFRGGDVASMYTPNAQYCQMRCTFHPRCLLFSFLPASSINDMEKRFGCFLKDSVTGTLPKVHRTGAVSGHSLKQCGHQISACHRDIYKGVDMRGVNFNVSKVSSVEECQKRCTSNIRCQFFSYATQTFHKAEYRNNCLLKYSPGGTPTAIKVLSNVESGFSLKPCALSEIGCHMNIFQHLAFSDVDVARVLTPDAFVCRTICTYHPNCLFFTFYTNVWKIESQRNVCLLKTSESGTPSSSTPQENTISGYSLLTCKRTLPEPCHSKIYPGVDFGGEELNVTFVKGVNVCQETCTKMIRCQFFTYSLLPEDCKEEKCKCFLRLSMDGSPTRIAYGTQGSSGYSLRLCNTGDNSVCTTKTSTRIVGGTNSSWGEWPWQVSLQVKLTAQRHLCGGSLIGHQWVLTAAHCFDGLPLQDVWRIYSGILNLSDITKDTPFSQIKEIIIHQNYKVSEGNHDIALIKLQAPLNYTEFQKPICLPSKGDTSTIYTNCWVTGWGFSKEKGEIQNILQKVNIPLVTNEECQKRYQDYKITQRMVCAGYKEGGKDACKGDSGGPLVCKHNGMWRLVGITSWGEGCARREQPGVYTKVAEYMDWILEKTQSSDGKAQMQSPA

Binder	Avg. IC50 [nM]
{des‑NH2}-CS[NMeI]CR[Tle]-NH2 (linker 1-4 via mXylyl) [R2204]	> 25000
{des‑NH2}-CP[Chg]C[2‑amino‑4‑(6-aminopyridin-3-yl)butanoic acid]V-NH2 (linker 1-4 via mXylyl; not fully specified (residue 1)) [R2203]	> 10000
{des‑NH2}-CP[dPhg]C[Trp(5-Cl)][Tle]-NH2 (linker 1-4 via mXylyl) [R2210]	> 75000
{des‑NH2}-CP[Phg]CR[Tle]L-OH (linker 1-4 via mXylyl) [R2202]	58.8
{des‑NH2}-CP[Chg]CR-OH (linker 1-4 via mXylyl) [R2195]	> 175000
{des‑NH2}-CP[Chg]CR-{2‑methyl‑1‑(4H-1,2,4-triazol-3-yl)propan‑1‑amine} (linker 1-4 via mXylyl) [R2197]	56.9
[Mpa][Aze][Chg]CR[Tle]-NH2 (linker 1-4 via mXylyl) [R2194]	127
[Mpa]P[Chg]C[2‑APY][Tle]-NH2 (linker 1-4 via mXylyl; reading uncertain; also: printed as [mXylyl(1,4)](Des-NH2)C-P-Chg-C-(2-APY-Tbg-NH2)) [R2198]	> 15000
{des‑NH2}-CP[αMePhg]CR[Tle]-NH2 (linker 1-4 via mXylyl) [R2192]	851
{des‑NH2}-CE[Chg]CR[Tle]-NH2 (linker 1-4 via mXylyl) [R2201]	7
{des‑NH2}-CP[dPhg]C[Phe(3-Cl)][Tle]-NH2 (linker 1-4 via mXylyl) [R2208]	> 75000
{des‑NH2}-C[αMeP][Phg]CR[Tle]-NH2 (linker 1-4 via mXylyl) [R2199]	0.54
{des‑NH2}-CP[dPhg]C[Phe(4-Cl)][Tle]-NH2 (linker 1-4 via mXylyl) [R2206]	> 75000
{des‑NH2}-CP[Phg]C[Phe(3-Cl)][Tle]-NH2 (linker 1-4 via mXylyl) [R2207]	> 75000
{BODIPY‑TMR}-MCESICRV-NH2 (linker 2-6 via mXylyl) [R2193]	205
{des‑NH2}-C[αMeP][dPhg]CR[Tle]-NH2 (linker 1-4 via mXylyl) [R2200]	470
{des‑NH2}-CP[Phg]C[Trp(5-Cl)][Tle]-NH2 (linker 1-4 via mXylyl) [R2209]	> 75000
{des‑NH2}-CP[Chg]CR-{(S)‑2,2‑dimethyl‑1‑(pyridin-2-yl)propan‑1‑amine} (linker 1-4 via mXylyl) [R2196]	35.6
{des‑NH2}-CP[Phg]C[Phe(4-Cl)][Tle]-NH2 (linker 1-4 via mXylyl) [R2205]	> 75000
